In data set [1] the target is T1, MRJP1 oligomer (MRJP1_4-apisimin4-24-methylenecholesterol8 complex) (Apis mellifera, UniProt O18330+Q8ISL8).
T1 construct: native complex purified from royal jelly; mature chains without signal peptides; partly deglycosylated with PNGase F (NAG left at Asn144); modelled MRJP1 23-432 and 28-432, apisimin 37-77 and 36-78; 254 kDa by AUC
T1 sequence (O18330 20-432): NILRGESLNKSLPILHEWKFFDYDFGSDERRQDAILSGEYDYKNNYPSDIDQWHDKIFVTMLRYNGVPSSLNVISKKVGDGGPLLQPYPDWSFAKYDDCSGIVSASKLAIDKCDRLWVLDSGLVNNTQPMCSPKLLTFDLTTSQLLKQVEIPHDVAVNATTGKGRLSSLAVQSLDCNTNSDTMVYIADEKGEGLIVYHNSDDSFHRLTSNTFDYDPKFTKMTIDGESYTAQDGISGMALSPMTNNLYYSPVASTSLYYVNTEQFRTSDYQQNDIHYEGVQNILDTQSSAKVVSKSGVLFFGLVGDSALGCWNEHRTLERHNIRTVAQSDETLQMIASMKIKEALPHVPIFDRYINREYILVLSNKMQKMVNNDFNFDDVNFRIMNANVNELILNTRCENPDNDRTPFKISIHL
T1 sequence (Q8ISL8 25-78): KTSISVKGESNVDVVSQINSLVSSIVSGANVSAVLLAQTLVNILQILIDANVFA
In words: X-ray crystal structure at […] Å; co-purified ligand identified by GC-MS and NMR. Format: binding. Conditions: co-purified natural ligand; eight per complex (four per asymmetric unit); inner two contact MRJP1 and apisimin, outer two apisimin only; crystals at pH 8.5.

Data set [2] deals with T2, Major royal jelly protein 1 (Apis mellifera, UniProt O18330 20-432, N-acetylglucosamine linked to Asn144 (seen in the crystal after partial deglycosylation); native glycoprotein).
T2 construct: Major royal jelly protein 1 (MRJP1) of the honeybee Apis mellifera; mature protein without N-terminal signal peptide; modelled residues 23-432 (protomer A) and 28-432 (protomer B); Native protein; occurs in royal jelly as a monomer fraction and as an oligomer with apisimin and 24-methylenecholesterol; also called MRJP1; royalactin (the monomer); source: purified from royal jelly (ultrafiltration, …)
T2 sequence (looked up): T1 sequence (O18330 20-432)
Put plainly: SEC; gel filtration of royal jelly collected from the nectar of different plants and from different honeybee species (Supplementary Fig. 10A, B).

Data set [3] addresses T2, Major royal jelly protein 1. In words: crystal structure; native MRJP1 oligomer from royal jelly, deglycosylated with PNGase F; hanging drop, 0.1 M Tris pH 8.5, 2.0 M ammonium phosphate; 2.65 Å, space group H32.
Data set [4] has the same target. Put plainly: SEC + other: SAXS; purified native MRJP1 oligomer at near-neutral pH; SAXS in 20 mM sodium phosphate pH 8, 150 mM NaCl, 0.1-10 mg/mL.
In data set [5] the target is Major royal jelly protein 1 of Apis cerana (Apis cerana). In words: SEC; gel filtration of royal jelly collected from the nectar of different plants and from different honeybee species (Supplementary Fig. 10A, B). (Size exclusion chromatography separates by hydrodynamic size, large species first.)
Data set [6] concerns the molecule itself. In words: crystal structure; native MRJP1 oligomer from royal jelly, deglycosylated with PNGase F; hanging drop, 0.1 M Tris pH 8.5, 2.0 M ammonium phosphate; 2.65 Å, space group H32.

With `C=C(CC[C@@H](C)[C@H]1CC[C@H]2[C@@H]3CC=C4C[C@@H](O)CC[C@]4(C)[C@H]3CC[C@]12C)C(C)C` [Osl, 24-methylenecholesterol], the “X-ray crystal structure at 2.65 Å; co-purified ligand identified by GC-MS and NM” value in data set [1] is reported as “The asymmetric unit contains two MRJP1, two apisimin, four unexpected 24-methylenecholesterol (ostreasterol, Osl)”.

The stoichiometry N is the number of molecules, sites or subunits per partner or assembly. “Major royal jelly protein 1 (from UniProt O18330 20-432) (natural protein)”: the stoichiometry N in data set [2], in data set [3] and in data set [4] was 4 in each case.

Turning to “Major royal jelly protein 1 of Apis cerana (natural protein)”, the stoichiometry N in data set [5] worked out at 4.

B1: apisimin (peptide, UniProt Q8ISL8 25-78, looked up)
chain: T1 sequence (Q8ISL8 25-78)
notes: Apisimin, serine-valine-rich peptide of the honeybee; mature protein without N-terminal signal peptide; modelled residues 37-77 (protomer C) and 36-78 (protomer D); source: co-purified with the native MRJP1 oligomer from royal jelly
B1: the binding result in data set [3] (both partners purified) and in data set [6] was “binds” throughout.

These data come from paper PMC6105727, “Architecture of the native major royal jelly protein 1 oligomer” (Nature Communications, 2018).
